Data on four substances can be found in patent US20260008830A1.

What all share (test): cell-based or functional assay
In test [1] the target is T1, IFN-gamma receptor on HEK-Dual cells (Human IFN-γ SEAP/Luciferase Reporter Cells, hkd-ifng).
T1 sequence (P15260 whole entry, looked up): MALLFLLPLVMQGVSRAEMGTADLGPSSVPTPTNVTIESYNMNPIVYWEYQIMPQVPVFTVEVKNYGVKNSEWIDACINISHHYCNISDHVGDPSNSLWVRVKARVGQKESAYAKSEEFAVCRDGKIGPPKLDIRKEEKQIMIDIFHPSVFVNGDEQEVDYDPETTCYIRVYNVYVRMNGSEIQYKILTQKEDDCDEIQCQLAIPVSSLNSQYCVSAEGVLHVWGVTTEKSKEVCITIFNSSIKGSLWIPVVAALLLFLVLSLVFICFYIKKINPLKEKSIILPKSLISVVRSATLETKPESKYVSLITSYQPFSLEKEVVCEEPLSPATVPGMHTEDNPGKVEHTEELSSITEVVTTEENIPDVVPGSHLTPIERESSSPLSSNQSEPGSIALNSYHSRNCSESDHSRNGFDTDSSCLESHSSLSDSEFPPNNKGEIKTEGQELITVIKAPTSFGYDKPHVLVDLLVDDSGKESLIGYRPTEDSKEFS
T1 sequence (P38484 whole entry, looked up): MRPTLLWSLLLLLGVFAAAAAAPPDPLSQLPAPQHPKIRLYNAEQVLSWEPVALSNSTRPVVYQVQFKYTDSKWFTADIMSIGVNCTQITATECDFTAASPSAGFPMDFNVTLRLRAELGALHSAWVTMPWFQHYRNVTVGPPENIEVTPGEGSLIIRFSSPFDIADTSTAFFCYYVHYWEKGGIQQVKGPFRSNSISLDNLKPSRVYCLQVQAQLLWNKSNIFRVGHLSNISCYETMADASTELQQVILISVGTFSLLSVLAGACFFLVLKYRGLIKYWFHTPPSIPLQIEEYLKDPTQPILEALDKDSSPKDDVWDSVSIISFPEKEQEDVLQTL

Test [2] concerns the target T2, IL-10 receptors R1 and R2 on HEK-Blue IL-10 reporter cells (UniProt Q13651).
T2 sequence (looked up) 1: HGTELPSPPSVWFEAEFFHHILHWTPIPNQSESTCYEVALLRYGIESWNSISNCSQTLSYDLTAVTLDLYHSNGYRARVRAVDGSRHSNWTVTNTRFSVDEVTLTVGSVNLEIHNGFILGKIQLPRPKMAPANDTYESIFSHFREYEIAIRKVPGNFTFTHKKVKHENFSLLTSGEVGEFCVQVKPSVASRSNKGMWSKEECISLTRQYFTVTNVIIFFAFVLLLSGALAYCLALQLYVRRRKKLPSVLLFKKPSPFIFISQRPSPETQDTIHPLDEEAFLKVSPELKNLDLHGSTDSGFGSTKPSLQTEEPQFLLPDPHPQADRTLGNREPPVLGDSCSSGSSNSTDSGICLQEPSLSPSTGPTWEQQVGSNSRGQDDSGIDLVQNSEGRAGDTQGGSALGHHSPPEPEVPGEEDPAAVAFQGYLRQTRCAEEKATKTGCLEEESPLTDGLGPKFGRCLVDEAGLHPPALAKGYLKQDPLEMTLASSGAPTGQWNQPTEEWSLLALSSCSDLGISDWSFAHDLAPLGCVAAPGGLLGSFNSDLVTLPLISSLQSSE
T2 sequence (looked up) 2: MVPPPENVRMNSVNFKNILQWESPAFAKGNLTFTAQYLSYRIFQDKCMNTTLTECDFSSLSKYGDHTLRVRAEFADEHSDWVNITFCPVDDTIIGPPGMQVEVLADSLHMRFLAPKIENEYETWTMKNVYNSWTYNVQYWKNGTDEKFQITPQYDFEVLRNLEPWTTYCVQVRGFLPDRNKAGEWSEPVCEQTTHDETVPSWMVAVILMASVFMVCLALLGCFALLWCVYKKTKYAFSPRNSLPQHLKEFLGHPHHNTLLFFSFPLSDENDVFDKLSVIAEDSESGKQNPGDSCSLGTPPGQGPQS

Test [3] has as its target IL-22 receptors R1 and R2 on HEK-Blue IL-22 reporter cells (UniProt Q8N6P7).
Test [4] has as its target IL-10 receptors R1 and R2 on HEK-Blue IL-10 reporter cells (UniProt Q13651). This is another data set of the same source.

Sequence of IL-10 ORF (WT human IL-10 expressed and secreted by M. pneumoniae) (P22301 other isoform, or with tags, fused parts or gaps limits assumed): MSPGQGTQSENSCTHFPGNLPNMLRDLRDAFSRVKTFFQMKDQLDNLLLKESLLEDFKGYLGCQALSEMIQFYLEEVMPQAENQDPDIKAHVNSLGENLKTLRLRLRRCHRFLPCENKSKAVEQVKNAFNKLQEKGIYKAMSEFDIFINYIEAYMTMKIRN
Sequence of IL-22 receptors R1 and R2 on HEK-Blue IL-22 reporter cells (Q8N6P7 16-574 limits assumed): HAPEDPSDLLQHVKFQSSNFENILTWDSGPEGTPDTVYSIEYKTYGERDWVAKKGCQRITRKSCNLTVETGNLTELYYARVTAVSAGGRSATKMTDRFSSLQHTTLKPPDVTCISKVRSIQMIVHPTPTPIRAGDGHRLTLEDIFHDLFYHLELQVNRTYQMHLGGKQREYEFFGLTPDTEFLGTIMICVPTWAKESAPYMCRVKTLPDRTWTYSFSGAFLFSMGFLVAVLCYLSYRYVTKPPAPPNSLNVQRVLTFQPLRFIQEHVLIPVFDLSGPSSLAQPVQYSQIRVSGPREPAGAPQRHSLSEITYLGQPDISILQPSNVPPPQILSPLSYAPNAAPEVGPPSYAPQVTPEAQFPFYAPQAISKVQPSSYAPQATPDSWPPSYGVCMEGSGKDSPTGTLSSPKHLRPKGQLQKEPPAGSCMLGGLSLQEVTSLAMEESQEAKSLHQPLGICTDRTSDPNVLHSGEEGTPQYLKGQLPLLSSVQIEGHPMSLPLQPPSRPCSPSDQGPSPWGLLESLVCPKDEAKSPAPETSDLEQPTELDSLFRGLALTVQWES
Sequence of IFNg WT (crystallised version of IFNg of PDB 6e3k) (P01579 other isoform, or with tags, fused parts or gaps limits assumed): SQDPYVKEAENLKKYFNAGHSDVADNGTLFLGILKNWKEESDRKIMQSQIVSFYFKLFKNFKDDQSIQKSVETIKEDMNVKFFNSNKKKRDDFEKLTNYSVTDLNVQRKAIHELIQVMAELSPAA

In test [1], “IFNg WT (crystallised version of IFNg of PDB 6e3k) (from UniProt P01579 24-147) (ligand)” came in with an EC50 (HEK Dual cells responding to IFNγ) of 0.0866 nM.
In the case of “IL-10 ORF (WT human IL-10 expressed and secreted by M. pneumoniae) (from UniProt P22301 19-178) (ligand)”, in test [2], the Apparent Kd (M) average (HEK-Blue IL-10 SEAP reporter, absorbance 630 nm, saturation binding fit) is 1.98e-10 M and the Fold change-apparentKD (against IL-10 ORF) was found to be 1 fold.
For the substance “WT22 (IL-22 WT used as reference for the interface mutants) (from UniProt Q9GZX6 34-179) (ligand)”, in test [3], the app KD (HEK-Blue IL-22 reporter) was 0.128 nM.
As for “hIL-10r (commercial recombinant human IL-10, #200-10, Peprotech) (from UniProt P22301 19-178) (ligand)”, in test [4], the Apparent Kd (M) average (HEK-Blue IL-10 SEAP reporter, absorbance 630 nm, saturation binding fit) was found to be 4.61e-10 M and the Fold change-apparentKD (against IL-10 ORF) came out at 0.43 fold.
